Measured values published in US12577311 (dated 2026).
Like-named read-outs stand apart in the source and are kept apart here.

What was measured:
CAIX [1] = biological target: T1, CAIX (UniProt Q16790 38-414)
CAIX [2] = biological target: T1, CAIX; remark: listed apart in the source
CAIX [3] = biological target: T1, CAIX; remark: listed apart in the source
PE labeled CAIX protein [4] = biological target: T2, PE labeled CAIX protein (UniProt Q16790 38-414); experiment: FACS binding
PE labeled CAIX protein [5] = biological target: T2, PE labeled CAIX protein; experiment: FACS binding; remark: listed apart in the source

Kd (CAIX [1])	Kd (CAIX [2])	Kd (CAIX [3])	EC50 (PE labeled CAIX protein [4])	EC50 (PE labeled CAIX protein [5])	Binder
25.1 nM	25.1 nM	25.1 nM	–	–	G27 (antibody, V domains shown) VH: QVTLKESGGGVVQPGTSLRLSCAASGFTFSNYAMTWVRQAPGKGLEWVGLISYDGSVTHYTDSVKGRFTISRDNAKNSLYLQMNTLRADDTAVYYCARGSGYQEHWGQGTLVTVSS VL: LPVLTQPPSVSVAPGQTARITCGGNNIGSKSVEWYQQKPGQAPVLVIYYDSDRPSGIPERFSGSNSGNTATLTISRVEAGDEADYYCQVWDSSSDHHVVFGGGTKLTVLG
3.43 nM	3.43 nM	3.43 nM	–	–	G39 (antibody, V domains shown) VH: not shown VL: QSVLTQPPSVSGAPGQRVTISCTGSSSNIGRGYNVHWYQQLPGTAPKLLIYDNTNRPSGVPARFSGSKSATSASLAITGLQADDEADYYCQSYDSGLRWVFGGGTKLTLLR
40.3 nM	40.3 nM	40.3 nM	–	–	G125 (antibody, V domains shown) VH: EVQLVESGGGVVQPGRSLRLSCAASGFTFSSYGMHWVRQAPGKGLEWVSAISGSGGSTYYADSVKGRFTISRDNAKNTLYLQMNSLRAEDTAVYYCARAAVTGGFDPWGQGTLVTVSS VL: QPGLTQPPSVSVAPGQTARITCGGDNIGRKSVHWYQQRPGQAPILVIRDDRDRPSGIPERFSGSSSVNTATLIISRVEAGDEADYYCQVWDSSSKHYVFGPGTKVTALG
4.25 nM	4.25 nM	4.25 nM	–	–	G57 (antibody, V domains shown) VH: QVQLVQSGGGVVQPGRSLRLSCAASGFTFSSYGMHWVRQAPGKGLEWVAVISYDGSNKYYADSVKGRFTISRDNSKNTLYLQMNSLRAEDTAVYYCAREAPYSSSLDAFDIWGQGTMVTVSS VL: QSVLTQPPSVSGAPGQRVTISCTGSSSNIGRGYNVHWYQQLPGTAPKLLIYGNSNRPSGVPDRFSGSSSGNTASLTITGAQAEDEADYYCHSRDNNGHHIFGGGTKLTVLS
25.9 nM	25.9 nM	25.9 nM	–	–	G6 (antibody, V domains shown) VH: QVQLVQSGGGLVQPGGSLRLSCAASEFTFGTYAMTWVRQAPGKGLEWVSAVSGSGGSTYYADSVKGRFTISRDNSRNTLYLQMNSLRADDTAVYYCARGPVLRYGFDIWGQGTMVIVSS VL: QSVLTQPPSVSGAPGQRITISCTGSRSNIGADYDVHWYQQLPGTAPKLLIYANNNRPSGVPGRFSASKSGTSASLAISGLQAEDEADYYCQSYDSSLRAWVFGGGTKLAVLG
–	–	–	0.132 µg/mL	0.132 µg/mL	anti-CAIX (G36) CAR (scFv, V domains shown) VH: EVQLVQSGGGVVQPGGSLRLSCAASGFPFSSYAMSWVRQAPGKGLEWVSAISANGGTTYYADSVKGRFTISRDNSKNTLYLQMNSLRAEDTAVYYCANNGNYRGAFDIWGQGTMVTVSS VL: QSVLTQPPSVSGAPGQRVTISCTGSSSNIGAGFDVHWYQQLPGTAPKLLIYGNTNRPSGVPDRFSGSKSGTSASLAITGLQAEDETDYYCQSYDSRLSAWVFGGGTKLTVLG
3.2 nM	3.2 nM	3.2 nM	–	–	G106 (antibody, V domains shown) VH: EVQLVQSGGGLVQPGGSLRLSCAASGFTFSSYAMSWVRQAPGKGLEWVSAISANGGTTYYADSVKGRFTISRDNSKNTLYLQMNSLRAEDTAVYYCANNGNYRGAFDIWGQGTTVTVSS VL: QSVLTQPPSVSGAPGQRVTISCTGSSSNIGAGFDVHWYQQLPGTAPRLLIYGNNNRPSGVPDRFSGSKSGTSASLAITGLQAEDETDYFCQSYDSSLSAWVFGGGTKVTVLR
1.89 nM	1.89 nM	1.89 nM	–	–	G37 (antibody, V domains shown) VH: QVQLVQSGGGVVQPGGSLRLSCAASGFPFSSYAMSWVRQAPGKGLEWVSAISANGGTTYYADSVKGRFTISRDNSKNTLYLQMNSLRAEDTAVYYCANNGNYRGAFDIWGQGTMVTVSS VL: QSVLTQPPSVSGAPGQRITISCTGSRSNIGADYDVHWYQQLPGTAPKLLIYANNNRPSGVPDRFSGSKSGTSASLAITGLQAEDETDYFCQSYDSSLSAWVFGGGTKVTVLG
1.62 nM	1.62 nM	1.62 nM	–	–	G10 (antibody, V domains shown) VH: QVQLVQSGGGLVQPGGSLRLSCAASGFPFSSYAMSWVRQAPGKGLEWVSAISANGGTTYYADSVKGRFTISRDNSKNTLYLQMNSLRAEDTAVYYCANNGNYRGAFDIWGQGTMVTVSS VL: QSVLTQPPSVSGAPGQRVTISCTGSSSNIGAGYDVHWYQQLPGTAPKLLIYGNSNRPSGVPDRFSGSKSGSSASLAITGLQAEDEAHYYCQSYDRSLSWVFGGGTKLTVLG
99.6 nM	99.6 nM	99.6 nM	–	–	G9 (antibody, V domains shown) VH: QVQLQESGGGLVQPGGSLRLSCAASGFTFSSYAMSWVRQAPGKGLEWVSAISGSGGSTYYADSVKGRFTISRDNSKNTLYLQMNSLRAEDTAVYYCARSHSSGGFDYWGQGTLVTVSS VL: QSVLTQPPSVSGAPGQRVTISCTGSSSNIGRGYNVHWYQQLPGTAPKLLIYGNTNRPSGVPDRFSGSKSGTSASLAITGLQAEDEGDYYCQSYDSSLSAWVFGGGTKLTVLG
3.22 nM	3.22 nM	3.22 nM	–	–	G36 (antibody, V domains shown) VH: EVQLVQSGGGVVQPGGSLRLSCAASGFPFSSYAMSWVRQAPGKGLEWVSAISANGGTTYYADSVKGRFTISRDNSKNTLYLQMNSLRAEDTAVYYCANNGNYRGAFDIWGQGTMVTVSS VL: QSVLTQPPSVSGAPGQRVTISCTGSSSNIGAGFDVHWYQQLPGTAPKLLIYGNTNRPSGVPDRFSGSKSGTSASLAITGLQAEDETDYYCQSYDSRLSAWVFGGGTKLTVLG
1.49 nM	1.49 nM	1.49 nM	–	–	G119 (antibody, V domains shown) VH: QVQLVQSGGGLVQPGGSLRLSCAASGFPFSSYAMSWVRQAPGKGLEWVSAISANGGTTYYADSVKGRFTISRDNSKNTLYLQMNSLRAEDTAVYYCANNGNYRGAFDIWGQGTMVIVSS VL: QSVLTQPPSVSGAPGQRVTISCTGSSSNIGAGYDVHWYQQLPGTAPKLLIYGNTNRPSGVPDRFSGSKSGTSASLAIIGLQADDEADYYCQSYDSTLRVWMFGGGTKLTVLG
21.8 nM	21.8 nM	21.8 nM	–	–	G40 (antibody, V domains shown) VH: QVQLVQSGGGLVQPGGSLRLSCAASGFTFSSYAMSWVRQAPGKGLEWVSAISGSGGSTYYADSVKGRFTISRDNSKNTLYLQMNSLRAEDTAVYYCATYGDYGSLDYWGQGTLVTVSS VL: QSVLTQPPSVSGAPGQRVTISCTGSSSNIGAGYDVHWYQQLPGTAPKLLIYANNNRPSGVPDRFSGSKSGTSASLAITGLQAEDEADYYCQSYDSSLRAWVFGGGTKLAVLG
12.5 nM	12.5 nM	12.5 nM	–	–	G45 (antibody, V domains shown) VH: QVQLVQSGGGLVRPGGSLRLSCAASGFPFSSYAMSWVRQAPGKGLEWVSAISANGGTTYYADSVKGRFTISRDNSKNTLYLQMNSLRAEDTAVYYCANNGNYRGAFDIWGQGTTVTVSS VL: QSVLTQPPSVSGAPGQRITISCTGSSSNIGAGYDVHWYQQVPGKAPKVVIYGNNNRPSGVPDRFSGSKSGASASLAITGLQTEDEADYYCQSYDKSLTWVFGGGTKVTVLG
